Earlier results in US7776891B2, “VLA-4 antagonists” (Merck Sharp & Dohme Corp., priority 2004, dated 2010).

Biological target: T1, VLA-4 (Homo sapiens, UniProt P13612)
T1 construct: host or cells: circulating VLA-4-bearing leukocytes of trial subjects (endogenous)
Settings: early clinical trials

lymphocytosis (a surrogate marker for blockade of VLA-4 function): observed
receptor occupancy: > 80%
Substance: natalizumab: humanized monoclonal antibody against α4 (Antegren®, Elan/Biogen)
